Consider 9 molecules from patent US20230041134A1 (Genentech, published 2023).

In assay [1] the target is T1, Her2 extracellular domain (Her2 ECD) (human, UniProt P04626 23-652).
T1 construct: For the crystal structure it was expressed in CHO cells and the complex was enzymatically deglycosylated; also called biotinylated Her2 ECD
Briefly: SPR (BIAcore T100), IgG, 1:1 Langmuir fit.
Procedure: (§1) The affinity of each 7C2 IgG variant for Her2 was determined by surface plasmon resonance using a BIAcoreT100. Biacore Series S CMS sensor chips were immobilized with monoclonal mouse anti-human IgG (Fc) antibody (Human antibody capture kit, GE Healthcare). Serial 3-fold dilutions of each 7C2 variant were injected at a flow rate of 30 μl/min. Each sample was analyzed with 3-minute association and 10-minute dissociation. After each injection the chip was regenerated using 3 M MgCl₂. Binding response was corrected by subtracting the RU from a flow cell capturing an irrelevant IgG at similar density. A 1:1 Languir model of simultaneous fitting of kₒₙ and koff was used for kinetics analysis.

For assay [2], the target named is T1, Her2 extracellular domain (Her2 ECD). Description: SPR (BIAcore T100), IgG on anti-human IgG (Fc) capture chip, Her2 ECD, 1:1 Langmuir fit.
Procedure: as §1
The target is the same in assay [3]. Briefly: SPR (BIAcore T100), IgG, 1:1 Langmuir fit. This is another data set of the same source.
Procedure: as §1

B1: 7C2.v2.1 (antibody, V domains shown)
VH: EVQLVQSGAEVKKPGASVKVSCKASGYSFTGYWMNWVRQAPGQGLEWIGMIHPSDSEIRANQKFRDRVTITRDTSTSTAYLELSSLRSEDTAVYYCARGTYDGGFEYWGQGTLVTVSS
VL: DIVMTQSPDSLAVSLGERATINCRASQSVSGSRFTYMHWYQQKPGQPPKLLIKYASILESGVPDRFSGSGSGTDFTLTISSLQAEDVAVYYCQHSWEIPPWTFGQGTKVEIK
notes: Expressed as IgG for SPR; also called hu7C2.v2.1
Turning to B1, in assay [1], binding was put at a Kd of 15.5 nM, the koff was found to be 0.0041 s⁻¹ and the association rate constant (kon) turned out to be 260000 M⁻¹ s⁻¹. For the same molecule, the dissociation constant (Kd) in assay [2] stood at 16 nM.

B2: 7C2.v3.3 (antibody, V domains shown)
VH: EVQLVQSGAEVKKPGASVKVSCKASGYSFTGYWMNWLRQAPGQGLEWIGMIHPSDSEIRANQKFRDRATLTVDKSTSTAYLELSSLRSEDTAVYYCARGTYDGGFEYWGQGTLVTVSS
VL: DIVLTQSPDSLAVSLGERATINCRASQSVSGSRFTYMHWYQQKPGQPPKLLIKYASILESGVPDRFSGSGSGTDFTLTISSLQAEDVAVYYCQHSWEIPPWTFGQGTKVEIK
In the case of B2, the affinity in assay [2], expressed as Kd, was 9 nM.

B3: hu7C2.v2.2.LA (antibody, human IgG1, kappa, V domains shown)
VH: EVQLVQSGAEVKKPGASVKVSCKASGYSFTGYWMNWVRQAPGQGLEWIGMIHPLDAEIRANQKFRDRVTITVDTSTSTAYLELSSLRSEDTAVYYCARGTYDGGFEYWGQGTLVTVSS
VL: DIVMTQSPDSLAVSLGERATINCRASQSVSGSRFTYMHWYQQKPGQPPKLLIKYASILESGVPDRFSGSGSGTDFTLTISSLQAEDVAVYYCQHSWEIPPWTFGQGTKVEIKR
notes: IgG1 kappa; Measured as IgG by SPR; also called humanized 7C2.v2.2.LA; hu7C2.v2.2.LA (S53L, S55A)
In assay [3], B3 yielded an equilibrium dissociation constant (Kd) of 3 nM. This counts as single-digit nanomolar.

B4: 7C2.v1.3 (antibody, V domains shown)
VH: EVQLVQSGAEVKKPGASVKVSCKASGYSFTGYWMNWLRQAPGQGLEWIGMIHPSDSEIRANQKFRDRATLTVDKSTSTAYLELSSLRSEDTAVYYCARGTYDGGFEYWGQGTLVTVSS
VL: DIVMTQSPDSLAVSLGERATINCRASQSVSGSRFTYMHWYQQKPGQPPKLLIYYASILESGVPDRFSGSGSGTDFTLTISSLQAEDVAVYYCQHSWEIPPWTFGQGTKVEIK
Take B4: the Kd in assay [2] came out at 11 nM.

B5: 7C2.v1.2 (antibody, V domains shown)
VH: EVQLVQSGAEVKKPGASVKVSCKASGYSFTGYWMNWVRQAPGQGLEWIGMIHPSDSEIRANQKFRDRVTITVDTSTSTAYLELSSLRSEDTAVYYCARGTYDGGFEYWGQGTLVTVSS
VL: DIVMTQSPDSLAVSLGERATINCRASQSVSGSRFTYMHWYQQKPGQPPKLLIYYASILESGVPDRFSGSGSGTDFTLTISSLQAEDVAVYYCQHSWEIPPWTFGQGTKVEIK
Regarding B5, binding in assay [2] was characterised by a dissociation constant (Kd) of 13 nM.

B6: 7C2.v2.3 (antibody, V domains shown)
VH: EVQLVQSGAEVKKPGASVKVSCKASGYSFTGYWMNWLRQAPGQGLEWIGMIHPSDSEIRANQKFRDRATLTVDKSTSTAYLELSSLRSEDTAVYYCARGTYDGGFEYWGQGTLVTVSS
VL: DIVMTQSPDSLAVSLGERATINCRASQSVSGSRFTYMHWYQQKPGQPPKLLIKYASILESGVPDRFSGSGSGTDFTLTISSLQAEDVAVYYCQHSWEIPPWTFGQGTKVEIK
As to B6, the dissociation constant Kd in assay [2] turned out to be 10 nM. The Kd values of the last two molecules are within 1.5-fold of each other.

B7: 7C2.v3.1 (antibody, V domains shown)
VH: EVQLVQSGAEVKKPGASVKVSCKASGYSFTGYWMNWVRQAPGQGLEWIGMIHPSDSEIRANQKFRDRVTITRDTSTSTAYLELSSLRSEDTAVYYCARGTYDGGFEYWGQGTLVTVSS
VL: DIVLTQSPDSLAVSLGERATINCRASQSVSGSRFTYMHWYQQKPGQPPKLLIKYASILESGVPDRFSGSGSGTDFTLTISSLQAEDVAVYYCQHSWEIPPWTFGQGTKVEIK
notes: Expressed as IgG
On to B7, for which the Kd in assay [2] came to 15 nM.

B8: hu7C2.v2.2 (antibody, V domains shown)
VH: EVQLVQSGAEVKKPGASVKVSCKASGYSFTGYWMNWVRQAPGQGLEWIGMIHPSDSEIRANQKFRDRVTITVDTSTSTAYLELSSLRSEDTAVYYCARGTYDGGFEYWGQGTLVTVSS
VL: DIVMTQSPDSLAVSLGERATINCRASQSVSGSRFTYMHWYQQKPGQPPKLLIKYASILESGVPDRFSGSGSGTDFTLTISSLQAEDVAVYYCQHSWEIPPWTFGQGTKVEIK
notes: Expressed as IgG; It is the parent of hu7C2.v2.2.LA, which adds S53L and S55A in HVR-H2
Consider B8, for which the equilibrium dissociation constant (Kd) in assay [3] and in assay [2] was 11 nM in each case.

B9: mu7C2.B9 (antibody, V domains shown)
VH: QVQLQQPGAELVRPGASVKLSCKASGYSFTGYWMNWLKQRPGQGLEWIGMIHPSDSEIRANQKFRDKATLTVDKSSTTAYMQLSSPTSEDSAVYYCARGTYDGGFEYWGQGTTLTVSS
VL: DIVLTQSPASLVVSLGQRATISCRASQSVSGSRFTYMHWYQQKPGQPPKLLIKYASILESGVPARFSGGGSGTDFTLNIHPVEEDDTATYYCQHSWEIPPWTFGGGTKLEIK
notes: Assessed as IgG by SPR on an anti-human IgG (Fc) capture chip; also called murine 7C2.B9; chimeric mu7C2.B9
On to B9, for which the Kd in assay [3] worked out at 8 nM. In other words, the single-digit nanomolar range.
